According to paper PMC10349855, “Structural basis for specific RNA recognition by the alternative splicing factor RBM5”:
Substitutions are numbered along the chain they refer to.

What was measured:
[1] = biological target: T1, RBM5 RRM1-ZnF1S (human, UniProt P52756 94-210, C191G); assay: X-ray crystallography; Zn2+; 3.5 A; ITC: 20 mM MES pH 6.5, 100 mM NaCl, 2 mM BME, 25 C; NMR: 20 mM MES pH 6.5, 100 mM (single RRMs) or 400 mM (multidomain) NaCl, 1 mM DTT, 298 K; details: protein: recombinant
T1 sequence: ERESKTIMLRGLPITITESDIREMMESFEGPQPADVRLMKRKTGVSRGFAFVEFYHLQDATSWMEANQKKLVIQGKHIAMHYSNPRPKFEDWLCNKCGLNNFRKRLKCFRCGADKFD

[2] = biological target: T2, RBM5 RRM1-ZnF1S (Homo sapiens, UniProt P52756 94-210, I107T;C191G); assay: ITC; Zn; 20 mM MES pH 6.5, 100 mM NaCl, 2 mM 2-mercaptoethanol, 25 C; protein 10-30 uM in the cell; one-site fit; details: tags: none; N-terminal Met-Gly from the NcoI site (left out)
T2 sequence: T1 sequence with I14T

[3] = biological target: T1, RBM5 RRM1-ZnF1S; assay: ITC; N about 0.6; Discussion prints 6 uM but also 2.4-fold weaker than 263 nM; ITC: 20 mM MES pH 6.5, 100 mM NaCl, 2 mM BME, 25 C; NMR: 20 mM MES pH 6.5, 100 mM (single RRMs) or 400 mM (multidomain) NaCl, 1 mM DTT, 298 K; details: protein: recombinant
[4] = biological target: T3, RBM5 RRM1 (human, UniProt P52756 94-184); assay: ITC; 20 mM MES pH 6.5, 100 mM NaCl, 2 mM 2-mercaptoethanol, 25 C; protein 10-30 uM in the cell; one-site fit; details: tags: His-thioredoxin, TEV-cleaved (scar left out)
T3 sequence: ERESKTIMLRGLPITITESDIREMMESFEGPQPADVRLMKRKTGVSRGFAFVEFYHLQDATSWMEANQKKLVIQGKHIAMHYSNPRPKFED

[5] = biological target: T4, RBM5 RRM1-ZnF1 wt (Homo sapiens, UniProt P52756 94-210, I107T); assay: ITC; Zn; 20 mM MES pH 6.5, 100 mM NaCl, 2 mM 2-mercaptoethanol, 25 C; protein 10-30 uM in the cell; one-site fit; details: tags: none; N-terminal Met-Gly from the NcoI site (left out)
T4 sequence: T1 sequence with I14T, G98C

[6] = biological target: T5, RBM5 RRM1-ZnF1 wt (human, UniProt P52756 94-210); assay: ITC; ITC: 20 mM MES pH 6.5, 100 mM NaCl, 2 mM BME, 25 C; NMR: 20 mM MES pH 6.5, 100 mM (single RRMs) or 400 mM (multidomain) NaCl, 1 mM DTT, 298 K; details: protein: recombinant
T5 sequence: T1 sequence with G98C

[7] = biological target: T6, RBM5 RRM1 F142A/F144A (human, UniProt P52756 94-184, F142A;F144A); assay: NMR; 20 mM MES pH 6.5, 100 mM NaCl, 1 mM DTT, 25 C; protein 0.1-0.2 mM; details: tags: His-thioredoxin, TEV-cleaved (scar left out)
T6 sequence: T3 sequence with F49A, F51A

[8] = biological target: T7, RBM5 RRM1-ZnF1 R198E (Homo sapiens, UniProt P52756 94-210, I107T;R198E); assay: ITC; Zn; 20 mM MES pH 6.5, 100 mM NaCl, 2 mM 2-mercaptoethanol, 25 C; protein 10-30 uM in the cell; one-site fit; details: tags: none; N-terminal Met-Gly from the NcoI site (left out)
T7 sequence: T1 sequence with I14T, G98C, R105E

[9] = biological target: T8, RBM5 RRM1-ZnF1 F142/144A (Homo sapiens, UniProt P52756 94-210, I107T;F142A;F144A); assay: as above; details: tags: none; N-terminal Met-Gly from the NcoI site (left out)
T8 sequence: T1 sequence with I14T, F49A, F51A, G98C

[10] = biological target: T9, RBM5 RRM1-ZnF1 F202A (Homo sapiens, UniProt P52756 94-210, I107T;F202A); assay: as above; details: tags: none; N-terminal Met-Gly from the NcoI site (left out)
T9 sequence: T1 sequence with I14T, G98C, F109A

[11] = biological target: T10, RBM5 RRM1-ZnF1S-RRM2 (human, UniProt P52756 94-315, C191G); assay: as above; details: tags: His-thioredoxin, TEV-cleaved (scar left out)
T10 sequence: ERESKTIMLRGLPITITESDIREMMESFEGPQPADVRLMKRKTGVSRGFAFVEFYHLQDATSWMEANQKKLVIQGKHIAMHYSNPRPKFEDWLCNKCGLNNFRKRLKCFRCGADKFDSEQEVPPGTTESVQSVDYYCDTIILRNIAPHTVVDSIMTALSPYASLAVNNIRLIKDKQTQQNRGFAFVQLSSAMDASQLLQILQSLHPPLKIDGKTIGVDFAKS

[12] = biological target: T11, RBM5 RRM1-ZnF1 F202A (human, UniProt P52756 94-210, F202A); assay: ITC; ITC: 20 mM MES pH 6.5, 100 mM NaCl, 2 mM BME, 25 C; NMR: 20 mM MES pH 6.5, 100 mM (single RRMs) or 400 mM (multidomain) NaCl, 1 mM DTT, 298 K; details: protein: recombinant
T11 sequence: T1 sequence with G98C, F109A

[13] = biological target: T12, RBM5 RRM1-ZnF1 R198E (human, UniProt P52756 94-210, R198E); assay: as above; details: protein: recombinant
T12 sequence: T1 sequence with G98C, R105E

[14] = biological target: T1, RBM5 RRM1-ZnF1S; assay: as above; details: protein: recombinant
[15] = biological target: T13, RBM5 RRM1-ZnF1 F142A/F144A (human, UniProt P52756 94-210, F142A;F144A); assay: as above; details: protein: recombinant
T13 sequence: T1 sequence with F49A, F51A, G98C

[16] = biological target: T14, RBM5 RRM2 (human, UniProt P52756 231-315); assay: ITC; average of two; ITC: 20 mM MES pH 6.5, 100 mM NaCl, 2 mM BME, 25 C; NMR: 20 mM MES pH 6.5, 100 mM (single RRMs) or 400 mM (multidomain) NaCl, 1 mM DTT, 298 K; details: protein: recombinant; tags: His-Trx tag, TEV cleaved
T14 sequence: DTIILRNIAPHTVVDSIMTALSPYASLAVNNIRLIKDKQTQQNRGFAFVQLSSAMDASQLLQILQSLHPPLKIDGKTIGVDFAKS

[17] = biological target: T5, RBM5 RRM1-ZnF1 wt; assay: ITC; average of two; text 153 nM; ITC: 20 mM MES pH 6.5, 100 mM NaCl, 2 mM BME, 25 C; NMR: 20 mM MES pH 6.5, 100 mM (single RRMs) or 400 mM (multidomain) NaCl, 1 mM DTT, 298 K; details: protein: recombinant

UGGCUCUUCU (ssRNA) [GGCU_10]
binding result [1]: binds

ACUUGGCUCUUCUCU (ssRNA) [eGGCU_12]
Kd [2]: 641 ± 125 nM
Kd [3]: 641 ± 125 nM

UCUCUUCUC (ssRNA) [CU_9]
Kd [4]: 19700 ± 6500 nM
Kd [5]: 5560 ± 2830 nM
Kd [6]: 6000 nM
binding result [7]: no binding

UGGCUCUUCUCU (ssRNA) [GGCU_12]
Kd [4]: 1880 ± 950 nM
Kd [8]: 2660 ± 380 nM
Kd [2]: 263 ± 27 nM
Kd [5]: 153 ± 69 nM
Kd [9]: 448 ± 36 nM
Kd [10]: 379 ± 41 nM
Kd [11]: 133 ± 12 nM
Kd [12]: 379 nM
Kd [13]: 2700 nM
Kd [14]: 263 ± 27 nM
Kd [15]: 448 nM
Kd [16]: 173000 nM
Kd [17]: 153 nM
